Experimental findings from patent US20050287527A1, “Quantitative ranking of transient ligand binding to target biomolecules” (National Research Council of Canada, priority 2002, published 2005) are described below.

For the test, the target named is Recombinant Cdc42 (residues 1-178) from Candida Albicans (Candida albicans) (UniProt P0CY33). The test can be described thus: method not stated; the complexes give no response in relaxation dispersion.
Recombinant Cdc42 (residues 1-178) from Candida Albicans (Candida albicans), sequence (P0CY33 1-178 limits assumed): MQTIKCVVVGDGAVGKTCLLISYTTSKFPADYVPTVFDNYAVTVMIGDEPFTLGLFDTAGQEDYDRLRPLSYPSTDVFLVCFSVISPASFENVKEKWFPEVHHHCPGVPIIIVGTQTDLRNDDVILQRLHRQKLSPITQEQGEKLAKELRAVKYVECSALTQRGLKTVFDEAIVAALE

Take “40-residue CRIB domain of Candida Ste20 (peptide)”: the Kd was 0.5 nM.
With “40-residue CRIB domain of Candida Cla4 (peptide)” the figure was 0.5 nM.

By Kd is commonly meant the equilibrium constant for the complex coming apart.
